Publication PMC7491320, “Pdc2/Pat1 increases the range of decay factors and RNA bound by the Lsm1–7 complex” (RNA, 2019)

Legend:
[1] = target: the molecule itself; test: AUC; sedimentation velocity, 9.3 µM PatMC/Lsm1–7 without RNA, 250 mM NaCl, 20 mM HEPES pH 7.0, 1 mM DTT, 22°C, 30,000 rpm, 10–12 h
[2] = target: the molecule itself; test: AUC; sedimentation velocity, 9.3 µM PatMC/Lsm1–7 with stoichiometric A15 RNA, 250 mM NaCl, 20 mM HEPES pH 7.0, 1 mM DTT, 22°C, 30,000 rpm, 10–12 h

B1: PatMC/Lsm1–7 complex (complex)
chain 1: LDEKRQKLERDHMLMAQCAGLMTRSDKSFIARIQISQLMSEDPESDDFYYRVYSIIRGRKPSEEEASHFIQTYLGPSNNRRRGRRSENPMQKLQQQLQRLVSSAKERPKATQLSLEGALGKIAVNTVRTPRQLLNVKRPTEPASSNSSLNNFSGFSTKKDVLHAIEKVYDLLLDFEQALRKASTLETTDQEQIDTWKTTLSEKLESIWKALYINESLEASSKTRPPFISIISHPKGMRLLPRLFPHLSKEQQISILKVVVYNFDSLDIVLRGTFDVNGELPLDVVSEMSSFTQFIIPPLLTIVNELDLETINNLFSQLLNRTNAVYLIQTKIGLSFLTLFISRAEILKQSGTVNQNEKEEWENTFNVMFNRVKGHFSTVFPPPNARAYADESYPWEFLAACATAASSEQHFTLVSETRDRVLDNIITSKRAPSEIAVVRISNVNLFLNAMGLDARQLSA
chain 2: MNQATQIIPFTTSGSLVDYVDRKVIVVLRDGKKLIGILRSFDQFANLMLQYTIERIYVDDMYGDIDRGVYIVRGENVVLLGELDLDKEYDAVKQLRRMPAEELYPLAKLHEEEKKKNIREKGKYLHSVGFSVDGGHDDLY
chain 3: MLFYSFFKTLIDTEVTVELKNDMSIRGILKSVDQFLNVKLENISVVDASKYPHMAAVKDLFIRGSVVRYVHMSSAYVDTILLADACRRDLANNKRQ
chain 4: not shown
chain 5: MLPLTLLNATQGRPILVELKNGETFNGHLENCDNYMNLTLREVIRTMPDGDKFFRLPECYIRGNNIKYLRIQDEVLSQVAKQQAQQRENRGSRFRGRGQRGRGNYGHTAPNRRGRGRGGHM
chain 6: not shown
chain 7: MDSSPNEFLNKVIGKKVLIRLSSGVDYKGILSCLDGYMNLALERTEEYVNGKKTNVYGDAFIRGNNVLYVSALDD
chain 8: MSSLQKRPGPGNSSQPTERPRKESILDLSRYQDQRIQATFTGGRQITGILKGFDQLMNLVLDDVEEQLRNPEDGKLTGAIRKLGLVVVRGTTLVLIAPMDGSEEIPNPFVQAE
notes: Pat1 (Pdc2) of S. pombe, middle and carboxy-terminal domains (PatMC), residues 296-754, codon optimized; Lsm1 of S. pombe, from a polycistron with all seven Lsm proteins; Lsm2 of S. pombe, from the polycistron; Lsm3 of S. pombe, from the polycistron; Lsm4 of S. pombe, from the polycistron; Lsm5 of S. pombe, from the polycistron; Lsm6 of S. pombe, from the polycistron; Lsm7 of S. pombe, from the …
stoichiometry N [1]: 2
stoichiometry N [2]: 4
